# Measured values as given in patent publication US20210054016, “Enzymatic RNA Capping Method” (NEW ENGLAND BIOLABS, INC., published 2021).
# Biological target: Vaccinia capping enzyme (VCE) (Vaccinia virus, UniProt P04298;P04318 P04298:1-844,P04318:1-287)
# Experiment: Cap50, 37 C, 30 min, 500 nM RNA, 1 mM MgCl2; 0.94 at 45 C, 4.08 at 50 C, 30.00 at 55 C
binder,measurement,value
"GUAGAACUUCGUCGAGUACGCUCAA (ssRNA, 5' triphosphate) [RNA1]",EC50,3.06 nM
